From US20090104207A1

Target: E1s (hepatitis C virus)
Assay: coating ELISA, E1s at 0.5 µg/ml, hybridoma supernatant

4G2 (antibody)
O.D. (450-595 nm): > 2 O.D.
